Data: patent US7662770

Biological target: EphA2 receptor tyrosine kinase, endogenous in MCF-10A and MDA-MB-231 human mammary epithelial cells (UniProt P29317)
Chain of UniProt P29317 (P29317 whole entry, looked up): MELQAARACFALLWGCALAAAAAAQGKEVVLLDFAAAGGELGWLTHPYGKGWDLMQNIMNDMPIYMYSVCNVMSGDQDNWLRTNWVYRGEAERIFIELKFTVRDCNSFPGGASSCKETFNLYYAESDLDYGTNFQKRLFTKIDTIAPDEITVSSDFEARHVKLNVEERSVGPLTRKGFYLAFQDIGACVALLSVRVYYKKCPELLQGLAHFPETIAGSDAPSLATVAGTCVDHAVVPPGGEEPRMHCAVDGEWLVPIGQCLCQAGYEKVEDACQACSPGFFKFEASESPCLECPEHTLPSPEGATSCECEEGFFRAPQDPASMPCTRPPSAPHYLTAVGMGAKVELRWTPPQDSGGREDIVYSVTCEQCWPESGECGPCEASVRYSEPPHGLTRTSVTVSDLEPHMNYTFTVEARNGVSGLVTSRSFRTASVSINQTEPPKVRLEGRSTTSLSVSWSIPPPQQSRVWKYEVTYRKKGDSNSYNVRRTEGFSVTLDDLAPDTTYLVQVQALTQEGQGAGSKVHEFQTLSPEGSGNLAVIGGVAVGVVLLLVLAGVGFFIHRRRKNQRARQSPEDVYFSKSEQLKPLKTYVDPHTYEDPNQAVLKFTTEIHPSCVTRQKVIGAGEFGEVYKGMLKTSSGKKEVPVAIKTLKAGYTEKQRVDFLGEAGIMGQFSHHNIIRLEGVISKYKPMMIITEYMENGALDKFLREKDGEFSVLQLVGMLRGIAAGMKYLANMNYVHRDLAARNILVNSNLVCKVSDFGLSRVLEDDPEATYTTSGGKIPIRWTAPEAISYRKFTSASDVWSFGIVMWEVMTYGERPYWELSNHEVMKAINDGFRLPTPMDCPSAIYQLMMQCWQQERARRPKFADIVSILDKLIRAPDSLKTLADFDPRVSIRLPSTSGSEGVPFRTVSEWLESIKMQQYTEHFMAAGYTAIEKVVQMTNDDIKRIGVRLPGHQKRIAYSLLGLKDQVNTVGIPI

## purified LMW-PTP protein (used in the in vitro dephosphorylation assays)
  dephosphorylation of immunoprecipitated EphA2 (Western blot with PY20 and 4G10): purified LMW-PTP could dephosphorylate EphA2 in a dose and time-dependent manner
